Test results as given in publication PMC5587775 (Nucleic Acids Research, 2017).

Molecular target: T1, recombinant MyoD protein (UniProt P10085 1-318)
T1 sequence (looked up): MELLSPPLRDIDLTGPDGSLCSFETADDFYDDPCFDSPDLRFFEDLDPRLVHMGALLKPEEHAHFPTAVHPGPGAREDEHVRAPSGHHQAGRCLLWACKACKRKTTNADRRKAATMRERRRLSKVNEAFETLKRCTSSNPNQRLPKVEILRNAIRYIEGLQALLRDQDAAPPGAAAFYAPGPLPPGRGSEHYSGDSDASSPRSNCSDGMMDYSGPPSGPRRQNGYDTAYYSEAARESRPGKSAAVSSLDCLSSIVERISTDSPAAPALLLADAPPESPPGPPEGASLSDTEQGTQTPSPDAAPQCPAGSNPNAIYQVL
Test: pull-down

B1: FoxO3 (natural protein, mouse (endogenous in C2C12), UniProt Q9WVH4 1-672, looked up)
chain: MAEAPASPVPLSPLEVELDPEFEPQSRPRSCTWPLQRPELQASPAKPSGETAADSMIPEEDDDEDDEDGGGRASSAMVIGGGVSSTLGSGLLLEDSAMLLAPGGQDLGSGPASAAGALSGGTPTQLQPQQPLPQPQPGAAGGSGQPRKCSSRRNAWGNLSYADLITRAIESSPDKRLTLSQIYEWMVRCVPYFKDKGDSNSSAGWKNSIRHNLSLHSRFMRVQNEGTGKSSWWIINPDGGKSGKAPRRRAVSMDNSNKYTKSRGRAAKKKAALQAAPESADDSPSQLSKWPGSPTSRSSDELDAWTDFRSRTNSNASTVSGRLSPILASTELDDVQDDDGPLSPMLYSSSASLSPSVSKPCTVELPRLTDMAGTMNLNDGLAENLMDDLLDNIALPPSQPSPPGGLMQRGSSFPYTAKSSGLGSPTGSFNSTVFGPSSLNSLRQSPMQTIQENRPATFSSVSHYGNQTLQDLLASDSLSHSDVMMTQSDPLMSQASTAVSAQNARRNVMLRNDPMMSFAAQPTQGSLVNQNLLHHQHQTQGALGGSRALSNSVSNMGLSDSSSLGSAKHQQQSPASQSMQTLSDSLSGSSLYSASANLPVMGHDKFPSDLDLDMFNGSLECDMESIIRSELMDADGLDFNFDSLISTQNVVGLNVGNFTGAKQASSQSWVPG
fold retrieval with E-box motif DNA against without: 1.6 fold
